The text below walks through data of the supplement of paper PMC10724198.

± gives the standard deviation of the averaged measurements.
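Further: PSI is a weighted mean of sequencing reads over stability bins, variants kept only with over 10 reads, mCherry proximal and sfGFP distal, peptide attached via GGGS linker.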

This data set has as its system Saccharomyces cerevisiae. The data set can be described thus: protein stability index of tFT-peptide fusion (C-terminal peptide) (PSI (0-1 scale)); higher = more stable (slower turnover). The following applies: genetic background: wild type; temperature: 30 C.
Take LLPPCYFFLTSP: the protein stability index amounted to 0.637 ± 0.093.

LLPPPPLPPLPL came in with a protein stability index of 0.796 ± 0.1.

For the sequence LLPPVLPPTLPP, the protein stability index amounted to 0.633 ± 0.0075.

For LLPRPSLDPSPP, the protein stability index was 0.682 ± 0.11.

LLPSLSPPPTPP had a protein stability index of 0.655 ± 0.051.

In turn, LLPSSLPFPPLR showed a protein stability index of 0.72 ± 0.06.

Sequence LLPYPAEPSPRR displayed a protein stability index of 0.713 ± 0.013.

Sequence LLRLDGGAGRSV showed a protein stability index of 0.627 ± 0.079.

For the sequence LLRPPAPPPLPT, the protein stability index worked out at 0.642 ± 0.17.

LLRRLILLQATW: the protein stability index is 0.5677 ± 0.0053.

Turning to LLSGPPVPPSWS, the protein stability index is 0.653 ± 0.19.

The sequence LLSLALFACSIC came in with a protein stability index of 0.63 ± 0.023.

On to LLSLLLLSSSPP, for which the protein stability index is 0.70828 ± 0.00034.

For the sequence LLSNDNRIKTIR, the protein stability index was determined as 0.725 ± 0.047.

The sequence LLSPLFCYSSRS showed a protein stability index of 0.6457 ± 0.0013.

LLSPLLLLASLS had a protein stability index of 0.534 ± 0.013.

In turn, LLSSPSVSPPPD displayed a protein stability index of 0.6754 ± 0.0022.

Sequence LLSVSFVGWPLT yielded a protein stability index of 0.634 ± 0.062.

LLTTGGRWWRRP showed a protein stability index of 0.669 ± 0.03.

In turn, LLVNSFLIFPPH came in with a protein stability index of 0.68474 ± 0.00059.

For the sequence LLVPCLQPPFRV, the protein stability index was determined as 0.622 ± 0.023.

Turning to LLVTPAPRSTHF, the protein stability index came to 0.648 ± 0.064.

The sequence LLWNFNLCHCEE yielded a protein stability index of 0.701 ± 0.011.

Consider LLYANDPTRPVI, for which the protein stability index amounted to 0.652 ± 0.015.

For the sequence LMDIPGNPRSLY, the protein stability index was 0.604 ± 0.072.

For LMGDRRLFSFSV, the protein stability index was 0.719 ± 0.12.

LMKSPGGTLTIR: the protein stability index worked out at 0.71 ± 0.053.

Take LMPPHPLFLSDI: the protein stability index is 0.724 ± 0.012.

In turn, LMQTGVNNQNTT displayed a protein stability index of 0.72 ± 0.035.

Take LMWPTSHLPQPQ: the protein stability index was 0.734 ± 0.092.

LNDEKIKGKTTK came in with a protein stability index of 0.732 ± 0.012.

As for LNGSRDEHKVMS, the protein stability index turned out to be 0.674 ± 0.022.

For LNIPARVSGAVV, the protein stability index was 0.636 ± 0.017.

With LNLRIGDVMRGG, the protein stability index was 0.682 ± 0.022.

The sequence LNNAIAGGSVGI came in with a protein stability index of 0.702 ± 0.074.

LNSRQATLRPQT came in with a protein stability index of 0.716 ± 0.021.

LNVVLTRTSVRY yielded a protein stability index of 0.657 ± 0.041.

In turn, LNYRVLTKVDER returned a protein stability index of 0.717 ± 0.048.

Sequence LPAILALVPRYP returned a protein stability index of 0.674 ± 0.022.

In turn, LPAISSPIPPSL had a protein stability index of 0.701 ± 0.048.

For LPAPLGPRIPSL, the protein stability index amounted to 0.753 ± 0.15.

Regarding LPARFLIDFTRV, the protein stability index was 0.688 ± 0.029.

Regarding LPATCFSPPSSS, the protein stability index worked out at 0.687 ± 0.057.

For LPFLFTSFAPAA, the protein stability index was found to be 0.776 ± 0.081.

LPGEHSEFNYLL registered a protein stability index of 0.7198 ± 0.0036.

In turn, LPGGECSLKGQQ displayed a protein stability index of 0.701 ± 0.079.

For the sequence LPGTTFTPPVAS, the protein stability index was 0.662 ± 0.008.

Consider LPHCPLNVFPLV, for which the protein stability index was found to be 0.654 ± 0.034.

LPHLFLSVPSSP gave a protein stability index of 0.665 ± 0.038.

With LPLDSPSRPLPP, the protein stability index came to 0.722 ± 0.011.

In the case of LPLFTIVPPFFF, the protein stability index amounted to 0.59 ± 0.011.

LPLPGSFTLNYP: the protein stability index is 0.733 ± 0.013.

Sequence LPLPLLLFPPPH had a protein stability index of 0.677 ± 0.041.

LPLRPPPSLLSR had a protein stability index of 0.689 ± 0.064.

As to LPMGTRGPAPGP, the protein stability index came out at 0.73 ± 0.12.

With LPNLTIPSRAIA, the protein stability index came to 0.623 ± 0.0054.

Take LPPCLEYLRVLR: the protein stability index came to 0.658 ± 0.07.

Take LPPFSSPLSSLR: the protein stability index came to 0.693 ± 0.016.

In turn, LPPHRPPAPDLS yielded a protein stability index of 0.674 ± 0.049.

Take LPPLLPSLSHAR: the protein stability index is 0.6459 ± 0.003.

LPPLPHLLSLYL had a protein stability index of 0.658 ± 0.076.

Consider LPPPLPPPPPPV, for which the protein stability index was found to be 0.651 ± 0.017.

Turning to LPPPLVPPLPSP, the protein stability index is 0.7017 ± 0.0023.

The sequence LPPPPLLIPLPT returned a protein stability index of 0.605 ± 0.062.

As for LPPPPPASPPSP, the protein stability index worked out at 0.703 ± 0.01.

As to LPPPPPILHLPS, the protein stability index came to 0.6463 ± 0.005.

In the case of LPPPPPPPPPPP, the protein stability index came to 0.60887 ± 2.4e-05.

Turning to LPPPPPPSHPPP, the protein stability index worked out at 0.697 ± 0.018.

LPPPPSAPHPSP returned a protein stability index of 0.668 ± 0.023.

For LPPPPYPEFYPC, the protein stability index came out at 0.772 ± 0.0089.

For LPPPRPLPRPCP, the protein stability index was 0.748 ± 0.096.

As to LPPPRSLPPILS, the protein stability index came out at 0.656 ± 0.017.

LPPRPSPPRRPP yielded a protein stability index of 0.666 ± 0.016.

In the case of LPPSPPPPPRQS, the protein stability index is 0.739 ± 0.013.

LPPSPPTPPQYT gave a protein stability index of 0.6977 ± 0.003.

In turn, LPPSSPLPPPPP showed a protein stability index of 0.77 ± 0.047.

Consider LPRAGLVLSPLH, for which the protein stability index was determined as 0.661 ± 0.051.

In turn, LPRERSFRLYKA yielded a protein stability index of 0.739 ± 0.016.

LPRPHARPPLSS showed a protein stability index of 0.583 ± 0.066.

LPRPPPLAGPPL displayed a protein stability index of 0.734 ± 0.013.
